Data published in patent US20110300138A1 (published 2011).

Legend:
[1] = molecular target: TSHR260-AP (fusion protein consisting of a fragment of human TSHR, amino acids 22-260, with alkaline phosphatase) (human); test: bridging ELISA: full length TSHR on wells, TSHR260-AP in liquid phase; IgG 10 µg/mL in HBD serum
[2] = molecular target: TSHR260-AP (fusion protein consisting of a fragment of human TSHR, amino acids 22-260, with alkaline phosphatase) (human); test: bridging ELISA: full length TSHR on wells, TSHR260-AP in liquid phase; IgG 1 µg/mL in HBD serum
[3] = molecular target: TSHR260-AP (fusion protein consisting of a fragment of human TSHR, amino acids 22-260, with alkaline phosphatase) (human); test: bridging ELISA: full length TSHR on wells, TSHR260-AP in liquid phase; IgG 0.01 µg/mL in HBD serum
[4] = molecular target: TSHR260-AP (fusion protein consisting of a fragment of human TSHR, amino acids 22-260, with alkaline phosphatase) (human); test: bridging ELISA: full length TSHR on wells, TSHR260-AP in liquid phase; IgG 0.5 µg/mL in HBD serum
[5] = molecular target: TSHR260-AP (fusion protein consisting of a fragment of human TSHR, amino acids 22-260, with alkaline phosphatase) (human); test: bridging ELISA: full length TSHR on wells, TSHR260-AP in liquid phase; IgG 0.005 µg/mL in HBD serum
[6] = molecular target: TSHR260-AP (fusion protein consisting of a fragment of human TSHR, amino acids 22-260, with alkaline phosphatase) (human); test: bridging ELISA: full length TSHR on wells, TSHR260-AP in liquid phase; IgG 0.1 µg/mL in HBD serum
[7] = molecular target: TSHR260-AP (fusion protein consisting of a fragment of human TSHR, amino acids 22-260, with alkaline phosphatase) (human); test: bridging ELISA: full length TSHR on wells, TSHR260-AP in liquid phase; IgG 0.05 µg/mL in HBD serum
[8] = molecular target: T1, thyroid stimulating hormone receptor (TSHR), full length human (human, UniProt P16473 22-764); test: 125I-K1-18 Fab competition, TSHR coated tubes; 100 µg/mL in assay buffer
T1 construct: TSHR coated on plastic tubes; also called TSH receptor
Method: (§1) Binding inhibition assays were carried out using TSHR coated tubes as described in WO2004/050708A2. […] After aspiration, the tubes were washed and 100 μL of ¹²⁵I-labelled protein (5×10⁴ cpm) added and incubated for 1 hour at room temperature with shaking. The tubes were then aspirated, washed and counted in a gamma counter. Inhibition of labelled protein binding was calculated as 100×[1−(cpm bound in the presence of test material/cpm bound in the presence of control material)].

[9] = molecular target: T1, thyroid stimulating hormone receptor …; test: 125I-K1-18 Fab competition, TSHR coated tubes; 10 µg/mL in assay buffer
Method: as §1

[10] = molecular target: T1, thyroid stimulating hormone receptor …; test: 125I-K1-18 Fab competition, TSHR coated tubes; 3 µg/mL in HBD
Method: as §1

[11] = molecular target: T1, thyroid stimulating hormone receptor …; test: 125I-K1-18 Fab competition, TSHR coated tubes; 1 µg/mL in HBD
Method: as §1

[12] = molecular target: T1, thyroid stimulating hormone receptor …; test: 125I-K1-18 Fab competition, TSHR coated tubes; 30 µg/mL in assay buffer
Method: as §1

[13] = molecular target: T1, thyroid stimulating hormone receptor …; test: 125I-K1-18 Fab competition, TSHR coated tubes; 10 µg/mL in HBD
Method: as §1

[14] = molecular target: T1, thyroid stimulating hormone receptor …; test: 125I-K1-18 Fab competition, TSHR coated tubes; 0.1 µg/mL in HBD
Method: as §1

[15] = molecular target: T1, thyroid stimulating hormone receptor …; test: 125I-K1-18 Fab competition, TSHR coated tubes; 100 µg/mL in HBD
Method: as §1

[16] = molecular target: T1, thyroid stimulating hormone receptor …; test: 125I-K1-18 Fab competition, TSHR coated tubes; 0.1 µg/mL in assay buffer
Method: as §1

[17] = molecular target: T1, thyroid stimulating hormone receptor …; test: 125I-K1-18 Fab competition, TSHR coated tubes; 3 µg/mL in assay buffer
Method: as §1

[18] = molecular target: T1, thyroid stimulating hormone receptor …; test: 125I-K1-18 Fab competition, TSHR coated tubes; 1 µg/mL in assay buffer
Method: as §1

[19] = molecular target: T1, thyroid stimulating hormone receptor …; test: 125I-K1-18 Fab competition, TSHR coated tubes; 30 µg/mL in HBD
Method: as §1

[20] = molecular target: T2, human TSH receptor, full length, detergent-solubilised, coated on tubes or ELISA plate wells (human, UniProt P16473 22-764); test: TSHR binding affinity (summary table; Scatchard analysis, TSHR coated tubes)
T2 construct: Full length recombinant receptor expressed in CHO cells, solubilised and coated via a C-terminal antibody; also called wild type TSHR; full length TSHR

[21] = molecular target: T3, full length human TSHR, detergent-solubilised, coated on tubes or ELISA plate wells (human, UniProt P16473 22-764); test: Scatchard analysis, full length TSHR coated tubes (mean±SD, n=3)
T3 construct: Full length receptor expressed in CHO cells, solubilised with detergent and held on the plastic by a mouse MAb to the C-terminus; The leader 1-21 is stated for the TSHR260 construct of the same receptor; also called TSH receptor; TSHR (full length)

TSHR260 = molecular target: T4, TSHR260 (human, UniProt P16473 22-260); test: Scatchard analysis, TSHR260 coated tubes (mean±SD, n=3)
T4 construct: Expressed in insect cells; coated on tubes or wells by way of a mouse TSHR MAb (14C4 F(ab')2 in the stability ELISA); also called TSHR fragment of amino acids 22-260

[22] = molecular target: T3, full length human TSHR, …; test: Scatchard analysis, 125I-labelled antibody on full length TSHR coated tubes (mean±SD, n=3)

Inhibition of binding (%) [8]	Inhibition of binding (%) [9]	Inhibition of binding (%) [10]	Inhibition of binding (%) [11]	Inhibition of binding (%) [12]	Inhibition of binding (%) [13]	Inhibition of binding (%) [14]	Inhibition of binding (%) [15]	Inhibition of binding (%) [16]	Inhibition of binding (%) [17]	Inhibition of binding (%) [18]	Inhibition of binding (%) [19]	Molecule	also measured
–	–	–	–	–	–	–	–	–	–	–	–	9D33 IgG (mouse TSHR blocking MAb) (antibody)	Mean absorbance at 405 nm (absorbance at 405 nm) [1]: 0.481; Mean absorbance at 405 nm (absorbance at 405 nm) [2]: 0.329; Mean absorbance at 405 nm (absorbance at 405 nm) [3]: 0.011; Mean absorbance at 405 nm (absorbance at 405 nm) [4]: 0.273; Mean absorbance at 405 nm (absorbance at 405 nm) [5]: 0.006; Mean absorbance at 405 nm (absorbance at 405 nm) [6]: 0.102; Mean absorbance at 405 nm (absorbance at 405 nm) [7]: 0.056
94.8%	94.8%	94%	91.9%	94.5%	94.5%	57%	96%	78.5%	93.7%	93.3%	95.7%	K1-18 IgG (antibody, V domains shown, Human IgG1 kappa purified from hetero-hybridoma supernatant; also called human monoclonal autoantibody K1-18) VH: EVQLVQSGAEVKKPGESLKISCKGSGYSFTNYWIGWVRQMPGKGLEWMGIIYPYDSDTRYSPSFEGQVTISADKSIRTAYLHWSSLKASDTAMYYCVRPRDGSYPYDAFDIWGQGTMVTVSS VL: EIVLTQSPGTLSLSPGERATLSCRASQSVSNNYLAWYQQKPGQAPRLLIYGASSRATGIPDRFSGSGSGTDFTLTISRLEPEDFAVYYCQHCGSSLRAFGQGTKVEIKR	–
–	–	–	–	–	–	–	–	–	–	–	–	K1-18 IgG (human monoclonal TSHR autoantibody with stimulating activity) (antibody, V domains shown, IgG1 kappa purified from hetero-hybridoma supernatant; also called stimulating MAb K1-18 (IgG1 kappa)) VH: EVQLVQSGAEVKKPGESLKISCKGSGYSFTNYWIGWVRQMPGKGLEWMGIIYPYDSDTRYSPSFEGQVTISADKSIRTAYLHWSSLKASDTAMYYCVRPRDGSYPYDAFDIWGQGTMVTVSS VL: EIVLTQSPGTLSLSPGERATLSCRASQSVSNNYLAWYQQKPGQAPRLLIYGASSRATGIPDRFSGSGSGTDFTLTISRLEPEDFAVYYCQHCGSSLRAFGQGTKVEIKR	Ka [20]: 7e+09 M⁻¹
–	–	–	–	–	–	–	–	–	–	–	–	K1-18 Fab (Fab, V domains shown) VH: EVQLVQSGAEVKKPGESLKISCKGSGYSFTNYWIGWVRQMPGKGLEWMGIIYPYDSDTRYSPSFEGQVTISADKSIRTAYLHWSSLKASDTAMYYCVRPRDGSYPYDAFDIWGQGTMVTVSS VL: EIVLTQSPGTLSLSPGERATLSCRASQSVSNNYLAWYQQKPGQAPRLLIYGASSRATGIPDRFSGSGSGTDFTLTISRLEPEDFAVYYCQHCGSSLRAFGQGTKVEIKR [K1-18 Fab, listing 1 of 2 here]	Ka [21]: 1.8e+09 M⁻¹
–	–	–	–	–	–	–	–	–	–	–	–	K1-18 Fab (Fab, V domains shown, also called Fab of K1-18) VH: EVQLVQSGAEVKKPGESLKISCKGSGYSFTNYWIGWVRQMPGKGLEWMGIIYPYDSDTRYSPSFEGQVTISADKSIRTAYLHWSSLKASDTAMYYCVRPRDGSYPYDAFDIWGQGTMVTVSS VL: EIVLTQSPGTLSLSPGERATLSCRASQSVSNNYLAWYQQKPGQAPRLLIYGASSRATGIPDRFSGSGSGTDFTLTISRLEPEDFAVYYCQHCGSSLRAFGQGTKVEIKR	Ka [20]: 1.3e+09 M⁻¹
86.2%	83.5%	82.8%	79.2%	84.2%	81.6%	43.9%	84.8%	62.5%	81.1%	81.5%	82.6%	K1-18 Fab (Fab, V domains shown) VH: EVQLVQSGAEVKKPGESLKISCKGSGYSFTNYWIGWVRQMPGKGLEWMGIIYPYDSDTRYSPSFEGQVTISADKSIRTAYLHWSSLKASDTAMYYCVRPRDGSYPYDAFDIWGQGTMVTVSS VL: EIVLTQSPGTLSLSPGERATLSCRASQSVSNNYLAWYQQKPGQAPRLLIYGASSRATGIPDRFSGSGSGTDFTLTISRLEPEDFAVYYCQHCGSSLRAFGQGTKVEIKR [K1-18 Fab, listing 2 of 2 here]	–
94.8%	94.6%	95.3%	94%	95.1%	95.8%	60.1%	95.6%	73.8%	94.5%	94%	95.5%	K1-70 IgG (antibody, V domains shown, Human IgG1 lambda purified from hetero-hybridoma supernatant; also called human monoclonal autoantibody K1-70) VH: EVQLVQSGAEVKKPGQSLKISCKASGYSLTDNWIGWVRQKPGKGLEWMGIIYPGDSDTRYSPSFQGQVTISADKSINTAYLQWSSLKASDTAIYYCVGLDWNYNPLRYWGPGTLVTVSS VL: QSVLTQPPSVSAAPGQKVTISCSGSSSDIGSNYVSWYQQFPGTAPKLLIYDNNKRPSAIPDRFSGSKSGTSATLGITGLQTGDEADYYCGTWDSRLGIAVFGGGTQLTVLG	–
–	–	–	–	–	–	–	–	–	–	–	–	K1-70 Fab (Fab, V domains shown, N-terminus blocked; deblocked with pyroglutamate aminopeptidase for Edman sequencing) VH: EVQLVQSGAEVKKPGQSLKISCKASGYSLTDNWIGWVRQKPGKGLEWMGIIYPGDSDTRYSPSFQGQVTISADKSINTAYLQWSSLKASDTAIYYCVGLDWNYNPLRYWGPGTLVTVSS VL: QSVLTQPPSVSAAPGQKVTISCSGSSSDIGSNYVSWYQQFPGTAPKLLIYDNNKRPSAIPDRFSGSKSGTSATLGITGLQTGDEADYYCGTWDSRLGIAVFGGGTQLTVLG	Ka (TSHR260): 9.3e+09 M⁻¹; Ka [21]: 2.3e+10 M⁻¹
–	–	–	–	–	–	–	–	–	–	–	–	K1-70 IgG (antibody, V domains shown, N-terminus blocked; deblocked with pyroglutamate aminopeptidase for Edman sequencing, Human IgG1 lambda purified from hetero-hybridoma supernatant; also called human MAb K1-70) VH: EVQLVQSGAEVKKPGQSLKISCKASGYSLTDNWIGWVRQKPGKGLEWMGIIYPGDSDTRYSPSFQGQVTISADKSINTAYLQWSSLKASDTAIYYCVGLDWNYNPLRYWGPGTLVTVSS VL: QSVLTQPPSVSAAPGQKVTISCSGSSSDIGSNYVSWYQQFPGTAPKLLIYDNNKRPSAIPDRFSGSKSGTSATLGITGLQTGDEADYYCGTWDSRLGIAVFGGGTQLTVLG	Ka [22]: 3.9e+10 M⁻¹; Ka (TSHR260): 3.1e+10 M⁻¹
